# Reference: paper PMC4498696
# Legend:
# AM14 IgG (human) = assay: ELISA
# [1] = target: biotinylated prefusion RSV F DS-Cav1, subtype B (respiratory syncytial virus, subtype B | not stated) (UniProt P13843); assay: Luminex bead binding assay; biotinylated RSV F proteins coupled to avidin-coated MagPlex beads (1 μg per 50,000 beads); IgG in 10-fold serial dilutions 1 μM to 0.1 pM; PE-conjugated anti-human IgG Fc; PBS, 0.1% BSA, 0.05% Tween 20
# [2] = target: biotinylated prefusion RSV F DS-Cav1, subtype B (respiratory syncytial virus, subtype B | not stated) (UniProt P13843)
# [3] = target: purified prefusion F N426D (respiratory syncytial virus, strain A2 | not stated) (UniProt P03420); assay: ELISA
# [4] = target: full-length prefusion F N426D (RSV F residues 1-574 with the DS-Cav1 stabilizing mutations and N426D (respiratory syncytial virus, strain not stated) (UniProt P03420)); assay: flow cytometry on cells
# AM14 IgG (human), sequence (heavy, as listed by the source, chain 1 of 2): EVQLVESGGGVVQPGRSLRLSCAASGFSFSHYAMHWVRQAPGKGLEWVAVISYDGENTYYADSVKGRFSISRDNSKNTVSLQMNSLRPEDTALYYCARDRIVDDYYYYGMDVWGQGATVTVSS
# AM14 IgG (human), sequence (light, as listed by the source, chain 2 of 2): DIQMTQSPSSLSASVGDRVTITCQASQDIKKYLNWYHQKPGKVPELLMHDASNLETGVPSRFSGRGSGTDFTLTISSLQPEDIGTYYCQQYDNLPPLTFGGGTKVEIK
Substance,fold decrease in other (AM14 IgG (human)),EC50 [1],"IC50 of neutralisation of RSV subtype B strain 9320 (F of the virus), microneutralization on HEp-2 cells [2]","IC50 of neutralisation of RSV subtype B strain 18537 (F of the virus), microneutralization on HEp-2 cells [2]",fold reduction of binding against wild-type prefusion F [3],fold reduction of binding against wild-type prefusion F [4]
"cleaved monomeric RSV F (residues 1-524, without the foldon trimerization motif) (from UniProt P03420 26-109; P03420 26-524) (domain or fragment)",100 fold,,,,,
AM14 IgG (antibody),,0.18 nM,0.0046 µg/mL,0.0308 µg/mL,100 fold,4 fold
